Laboratory results: publication PMC2756588

Experiments:
Assay in all cases: SPOT array
[1] = target: T1, Abp1, P15891; conditions: median of control spots 935
T1 sequence (P15891 535-592, looked up): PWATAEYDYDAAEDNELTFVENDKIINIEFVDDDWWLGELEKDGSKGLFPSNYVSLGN

[2] = target: T2, Bbc1, P47068; conditions: median of control spots 796
T2 sequence (P47068 1-78, looked up): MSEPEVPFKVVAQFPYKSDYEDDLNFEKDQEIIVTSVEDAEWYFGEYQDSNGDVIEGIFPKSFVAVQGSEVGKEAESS

[3] = target: Bem1-1, P29366; conditions: median of control spots 4282
Chain of Bem1-1, P29366 (P29366 55-141): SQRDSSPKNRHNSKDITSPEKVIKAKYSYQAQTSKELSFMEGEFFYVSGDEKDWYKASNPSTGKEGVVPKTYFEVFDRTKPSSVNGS

[4] = target: Bem1-2, P29366; conditions: median of control spots 4347
Chain of Bem1-2, P29366 (P29366 139-227): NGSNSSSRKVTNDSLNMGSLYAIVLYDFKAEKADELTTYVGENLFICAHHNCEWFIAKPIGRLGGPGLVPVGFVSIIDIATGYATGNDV

[5] = target: T3, Boi1, P38041; conditions: median of control spots 1162
T3 sequence (P38041 1-86, looked up): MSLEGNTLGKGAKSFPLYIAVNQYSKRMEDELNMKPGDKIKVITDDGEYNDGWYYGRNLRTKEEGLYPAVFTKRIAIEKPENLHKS

[6] = target: T4, Boi2, P39969; conditions: median of control spots 1161
T4 sequence (P39969 32-116, looked up): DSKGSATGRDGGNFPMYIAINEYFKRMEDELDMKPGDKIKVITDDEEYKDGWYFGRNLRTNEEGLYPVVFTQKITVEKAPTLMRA

[7] = target: T5, Bud14, P27637; conditions: median of control spots 956
T5 sequence (P27637 247-328, looked up): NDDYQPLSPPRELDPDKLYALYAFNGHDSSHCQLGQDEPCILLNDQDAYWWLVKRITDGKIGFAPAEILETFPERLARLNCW

[8] = target: T6, Bzz1-1, P38822; conditions: median of control spots 4446
T6 sequence (P38822 478-572, looked up): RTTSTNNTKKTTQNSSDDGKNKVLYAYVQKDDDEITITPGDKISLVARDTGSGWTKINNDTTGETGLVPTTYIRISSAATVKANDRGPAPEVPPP

[9] = target: T7, Bzz1-2, P38822; conditions: median of control spots 4538
T7 sequence (P38822 568-633, looked up): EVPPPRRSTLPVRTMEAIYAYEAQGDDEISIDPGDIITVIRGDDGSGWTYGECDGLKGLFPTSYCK

[10] = target: T8, Cdc25, P04821; conditions: median of control spots 969
T8 sequence (P04821 50-136, looked up): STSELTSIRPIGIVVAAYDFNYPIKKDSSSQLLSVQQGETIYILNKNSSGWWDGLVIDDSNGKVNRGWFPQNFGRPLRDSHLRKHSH

[11] = target: T9, Cyk3, Q07533; conditions: median of control spots 1451
T9 sequence (Q07533 1-83, looked up): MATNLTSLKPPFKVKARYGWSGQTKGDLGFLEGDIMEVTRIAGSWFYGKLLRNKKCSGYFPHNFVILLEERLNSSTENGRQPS

[12] = target: T10, Fus1, P11710; conditions: median of control spots 1200
T10 sequence (P11710 432-512, looked up): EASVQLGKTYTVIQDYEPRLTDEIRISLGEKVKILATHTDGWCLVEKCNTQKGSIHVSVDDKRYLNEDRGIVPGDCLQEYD

[13] = target: GST; conditions: median of control spots 978
[14] = target: T11, Hof1, Q05080; conditions: median of control spots 4086
T11 sequence (Q05080 590-669, looked up): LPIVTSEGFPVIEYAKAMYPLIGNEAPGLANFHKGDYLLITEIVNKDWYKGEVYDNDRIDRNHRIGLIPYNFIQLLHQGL

[15] = target: T12, Hse1, P38753; conditions: median of control spots 1727
T12 sequence (P38753 208-285, looked up): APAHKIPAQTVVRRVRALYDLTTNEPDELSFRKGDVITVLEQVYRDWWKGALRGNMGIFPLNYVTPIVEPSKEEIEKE

[16] = target: T13, Lsb1, P53281; conditions: median of control spots 388
T13 sequence (P53281 45-122, looked up): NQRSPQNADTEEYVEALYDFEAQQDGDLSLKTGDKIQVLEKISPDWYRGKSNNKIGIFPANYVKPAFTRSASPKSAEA

[17] = target: T14, Lsb3, P43603; conditions: median of control spots 406
T14 sequence (P43603 385-451, looked up): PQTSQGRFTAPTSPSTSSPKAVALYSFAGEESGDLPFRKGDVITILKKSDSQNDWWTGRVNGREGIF

[18] = target: T15, Lsb4, P32793; conditions: median of control spots 397
T15 sequence (P32793 402-468, looked up): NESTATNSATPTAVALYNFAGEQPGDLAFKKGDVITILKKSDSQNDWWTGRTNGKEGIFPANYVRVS

[19] = target: Myo3, P36006; conditions: median of control spots 468
[20] = target: T16, Myo5, Q04439; conditions: median of control spots 471
T16 sequence (Q04439 1072-1160, looked up): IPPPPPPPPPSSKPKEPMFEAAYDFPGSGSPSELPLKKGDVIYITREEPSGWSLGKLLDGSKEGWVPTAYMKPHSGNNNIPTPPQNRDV

[21] = target: T17, Nbp2, Q12163; conditions: median of control spots 357
T17 sequence (Q12163 103-180, looked up): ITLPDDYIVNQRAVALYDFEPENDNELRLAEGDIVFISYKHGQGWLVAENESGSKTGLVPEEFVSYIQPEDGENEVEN

[22] = target: T18, Pex13, P80667; conditions: median of control spots 1341
T18 sequence (P80667 295-386, looked up): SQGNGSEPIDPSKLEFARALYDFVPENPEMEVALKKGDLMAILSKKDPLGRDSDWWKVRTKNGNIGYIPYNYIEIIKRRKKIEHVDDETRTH

[23] = target: T19, Pin3, Q06449; conditions: median of control spots 2171
T19 sequence (Q06449 53-122, looked up): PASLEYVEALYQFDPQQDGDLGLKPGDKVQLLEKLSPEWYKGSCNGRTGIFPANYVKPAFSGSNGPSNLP

[24] = target: Rvs167, P39743; conditions: median of control spots 2707
Chain of Rvs167, P39743 (P39743 419-482): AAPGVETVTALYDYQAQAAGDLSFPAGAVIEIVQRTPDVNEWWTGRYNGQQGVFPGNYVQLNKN

[25] = target: Sho1, P40073; conditions: median of control spots 1148
Chain of Sho1, P40073 (P40073 287-367): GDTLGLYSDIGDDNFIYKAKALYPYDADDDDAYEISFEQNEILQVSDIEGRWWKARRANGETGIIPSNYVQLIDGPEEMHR

[26] = target: T20, Sla1-2, P32790; conditions: median of control spots 712
T20 sequence (P32790 60-140, looked up): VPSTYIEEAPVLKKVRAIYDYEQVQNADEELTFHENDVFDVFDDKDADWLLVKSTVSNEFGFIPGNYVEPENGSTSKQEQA

[27] = target: T21, Sla1-3, P32790; conditions: median of control spots 5475
T21 sequence (P32790 344-424, looked up): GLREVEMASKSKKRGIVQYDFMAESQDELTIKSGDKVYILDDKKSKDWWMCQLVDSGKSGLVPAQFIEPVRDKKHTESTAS

B1: unnamed (peptide)
chain: APERAVPILPPRNNV
- SPOT intensity [1]: 4
- SPOT intensity [2]: 13
- SPOT intensity [3]: 1
- SPOT intensity [4]: 2
- SPOT intensity [5]: 0
- SPOT intensity [6]: 1
- SPOT intensity [7]: 0
- SPOT intensity [8]: 1
- SPOT intensity [9]: 0
- SPOT intensity [10]: 1
- SPOT intensity [11]: 0
- SPOT intensity [12]: 0
- SPOT intensity [13]: 0
- SPOT intensity [14]: 63
- SPOT intensity [15]: 1
- SPOT intensity [16]: 290
- SPOT intensity [17]: 771
- SPOT intensity [18]: 1220
- SPOT intensity [19]: 66
- SPOT intensity [20]: 0
- SPOT intensity [21]: 0
- SPOT intensity [22]: 536
- SPOT intensity [23]: 13
- SPOT intensity [24]: 1340
- SPOT intensity [25]: 7
- SPOT intensity [26]: 0
- SPOT intensity [27]: 0

B2: unnamed (peptide)
chain: VQQDSLPKLPFRSWG
- SPOT intensity [1]: 0
- SPOT intensity [2]: 5
- SPOT intensity [3]: 0
- SPOT intensity [4]: 0
- SPOT intensity [5]: 0
- SPOT intensity [6]: 2
- SPOT intensity [7]: 0
- SPOT intensity [8]: 0
- SPOT intensity [9]: 0
- SPOT intensity [10]: 0
- SPOT intensity [11]: 0
- SPOT intensity [12]: 1
- SPOT intensity [13]: 0
- SPOT intensity [14]: 1570
- SPOT intensity [15]: 0
- SPOT intensity [16]: 399
- SPOT intensity [17]: 646
- SPOT intensity [18]: 1310
- SPOT intensity [19]: 0
- SPOT intensity [20]: 0
- SPOT intensity [21]: 0
- SPOT intensity [22]: 490
- SPOT intensity [23]: 7
- SPOT intensity [24]: 944
- SPOT intensity [25]: 66
- SPOT intensity [26]: 0
- SPOT intensity [27]: 0

B3: unnamed (peptide)
chain: LPMNIQPDLPPRKIM
- SPOT intensity [1]: 141
- SPOT intensity [2]: 2
- SPOT intensity [3]: 0
- SPOT intensity [4]: 0
- SPOT intensity [5]: 0
- SPOT intensity [6]: 0
- SPOT intensity [7]: 0
- SPOT intensity [8]: 0
- SPOT intensity [9]: 0
- SPOT intensity [10]: 0
- SPOT intensity [11]: 0
- SPOT intensity [12]: 0
- SPOT intensity [13]: 0
- SPOT intensity [14]: 0
- SPOT intensity [15]: 3
- SPOT intensity [16]: 285
- SPOT intensity [17]: 941
- SPOT intensity [18]: 1360
- SPOT intensity [19]: 102
- SPOT intensity [20]: 35
- SPOT intensity [21]: 6
- SPOT intensity [22]: 35
- SPOT intensity [23]: 175
- SPOT intensity [24]: 2810
- SPOT intensity [25]: 29
- SPOT intensity [26]: 6
- SPOT intensity [27]: 0

B4: unnamed (peptide)
chain: QQEQNTPPLPPKPKS
- SPOT intensity [1]: 3
- SPOT intensity [2]: 0
- SPOT intensity [3]: 1
- SPOT intensity [4]: 1
- SPOT intensity [5]: 0
- SPOT intensity [6]: 0
- SPOT intensity [7]: 0
- SPOT intensity [8]: 0
- SPOT intensity [9]: 3
- SPOT intensity [10]: 0
- SPOT intensity [11]: 0
- SPOT intensity [12]: 0
- SPOT intensity [13]: 0
- SPOT intensity [14]: 950
- SPOT intensity [15]: 184
- SPOT intensity [16]: 0
- SPOT intensity [17]: 923
- SPOT intensity [18]: 776
- SPOT intensity [19]: 0
- SPOT intensity [20]: 0
- SPOT intensity [21]: 0
- SPOT intensity [22]: 79
- SPOT intensity [23]: 0
- SPOT intensity [24]: 0
- SPOT intensity [25]: 14
- SPOT intensity [26]: 1
- SPOT intensity [27]: 3
